First the molecules themselves.
T1: hu-IL-7Rγc subunit (human, UniProt P31785 23-262, limits assumed)
T1 construct: also called human Rγc subunit; common γc receptor
T1 sequence (looked up): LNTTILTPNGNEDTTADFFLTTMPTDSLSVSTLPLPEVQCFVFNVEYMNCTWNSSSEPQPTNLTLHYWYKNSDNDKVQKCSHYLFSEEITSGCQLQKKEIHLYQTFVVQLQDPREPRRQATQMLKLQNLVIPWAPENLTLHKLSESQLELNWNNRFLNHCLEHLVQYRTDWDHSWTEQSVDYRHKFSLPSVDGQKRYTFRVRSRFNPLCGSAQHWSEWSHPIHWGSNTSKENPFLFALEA

T2: hu-IL-7Rγc subunit (human), P31785
T2 chain: T1 sequence (looked up)

Ends that are not written are not given here. A value given as a limit tells only on which side of the number the result lay.

The target of one experiment is T1, hu-IL-7Rγc subunit.
A word on the IC50: it is the concentration that inhibits the measured activity by half. Read a low IC50 as greater potency in that assay. As for DVECVDWGGVELCWH (not fully specified (bridges); cysteine pairing not given here, also called Rγc ligand) [SEQ ID NO 255], the IC50 is less than 100 µM.

As for ILCQEFEGVELCWLEESLAE (not fully specified (bridges); cysteine pairing not given here, also called Rγc ligand) [SEQ ID NO 284], the IC50 was less than 100 µM.

Regarding RSNQTVVECQDWEGVELCWQ (not fully specified (bridges); cysteine pairing not given here, also called Rγc ligand) [SEQ ID NO 282], the IC50 was less than 100 µM.

VGIECEEWAGVELCWL (not fully specified (bridges); cysteine pairing not given here, also called Rγc ligand) [SEQ ID NO 324] displayed an IC50 of less than 100 µM.

For VVCQEWEGVELCWC (not fully specified (bridges); cysteine pairing not given here, also called Rγc ligand) [SEQ ID NO 270], the IC50 is less than 100 µM.

Turning to RTGVECQDWHGVELCWPVWE (not fully specified (bridges); cysteine pairing not given here, also called Rγc ligand) [SEQ ID NO 320], the IC50 was less than 100 µM.

Molecule LALRKEVVCQEYYGVELCWI (not fully specified (bridges); cysteine pairing not given here, also called Rγc ligand) [SEQ ID NO 250] gave an IC50 of less than 100 µM.

Molecule MVNREVVVCEDWYGVELCWQ (not fully specified (bridges); cysteine pairing not given here, also called Rγc ligand) [SEQ ID NO 252] displayed an IC50 of less than 100 µM.

Regarding AHSRQEVVCEEWYGVELCWI (not fully specified (bridges); cysteine pairing not given here, also called Rγc ligand) [SEQ ID NO 258], the IC50 is less than 100 µM.

With GYGVVCEDFRGVELCWLERK (not fully specified (bridges); cysteine pairing not given here, also called Rγc ligand) [SEQ ID NO 321], the 50% inhibitory concentration (IC50) was less than 100 µM.

Turning to KLTVECQDWDGVELCWVGVE (not fully specified (bridges); cysteine pairing not given here, also called Rγc ligand) [SEQ ID NO 293], the IC50 is less than 100 µM.

Turning to FAHHGVVECQEWYGVELCWQ (not fully specified (bridges); cysteine pairing not given here, also called Rγc ligand) [SEQ ID NO 279], the IC50 is less than 100 µM.

KTTVACQDWGGVELCWVERV (not fully specified (bridges); cysteine pairing not given here, also called Rγc ligand) [SEQ ID NO 298] returned an IC50 of less than 100 µM.

Regarding ILCEEWQGVELCWLEGGGS (not fully specified (bridges); cysteine pairing not given here, also called Rγc ligand) [SEQ ID NO 323], the IC50 was less than 100 µM.

The molecule WSKKAEVVCEEWGGVEFCWI (not fully specified (bridges); cysteine pairing not given here, also called Rγc ligand) [SEQ ID NO 281] came in with an IC50 of less than 100 µM.

YSRELYVQCEDWEGVELCWI (not fully specified (bridges); cysteine pairing not given here, also called Rγc ligand) [SEQ ID NO 260] came in with an IC50 of less than 100 µM.

RLLNSVVECLDWEGVELCWQ (not fully specified (bridges); cysteine pairing not given here, also called Rγc ligand) [SEQ ID NO 268] registered an IC50 of less than 100 µM.

For the molecule RSDDEVVVCQEWEGVELCWQ (not fully specified (bridges); cysteine pairing not given here, also called Rγc ligand) [SEQ ID NO 275], the IC50 was less than 100 µM.

VVCQEWEGVELCWVEPPLLP (not fully specified (bridges); cysteine pairing not given here, also called Rγc ligand) [SEQ ID NO 295] registered an IC50 of less than 100 µM.

Molecule VVCQEWEGVELCWYAGECMQ (not fully specified (bridges); cysteine pairing not given here, also called Rγc ligand) [SEQ ID NO 283] returned an IC50 of less than 100 µM.

Molecule IECDTSYGVYICWQ (not fully specified (bridges); cysteine pairing not given here, also called Rγc ligand) [SEQ ID NO 246] came in with an IC50 of less than 100 µM.

For the molecule IECEEWAGVELCWL (not fully specified (bridges); cysteine pairing not given here, also called Rγc ligand) [SEQ ID NO 276], the IC50 is less than 100 µM.

EGSTTTIECEEWAGVELCWL (not fully specified (bridges); cysteine pairing not given here, also called Rγc ligand) [SEQ ID NO 273] displayed an IC50 of less than 100 µM.

The target of another experiment is T2, hu-IL-7Rγc subunit (human), P31785.
GPEVVCEEFNRVELCWVEYN (modifications not checked) [SEQ ID NO 305] showed an IC50 of less than 100 µM.

For SVEVVCEEWHGVELCWPVFI (modifications not checked) [SEQ ID NO 318], the IC50 is less than 100 µM.

RVQVECEDWNGVELCWPVRV (modifications not checked) [SEQ ID NO 296] returned an IC50 of less than 100 µM.

With SPSIVCEEWAGVELCWVDYS (modifications not checked) [SEQ ID NO 313], the IC50 is less than 100 µM.

Take VVCQEWEGVELCWQTGPGAHA (modifications not checked) [SEQ ID NO 308]: the concentration for half-maximal inhibition (IC50) is less than 100 µM.

Regarding KYIVECQEWGGVELCWPEMV (modifications not checked) [SEQ ID NO 306], the IC50 was less than 100 µM.

The molecule GYGVLCQEWQGVELCWPVQREAGV (modifications not checked) [SEQ ID NO 291] showed an IC50 of less than 100 µM.

Turning to INCQTWNGVELCWVDEGLYQ (modifications not checked) [SEQ ID NO 294], the IC50 is less than 100 µM.

In the case of VECEEWGGVELCWLADEVMW (modifications not checked) [SEQ ID NO 315], the IC50 was less than 100 µM.

Turning to EQQVVCQEWNGVELCWIEAG (modifications not checked) [SEQ ID NO 310], the IC50 is less than 100 µM.

The molecule TDEVSCQEWEGVELCWIERQ (modifications not checked) [SEQ ID NO 303] showed an IC50 of less than 100 µM.

For IVCEEYNGVELCWVETSVKP (modifications not checked) [SEQ ID NO 309], the concentration for half-maximal inhibition (IC50) was less than 100 µM.

Regarding RPEVVCQEWEGVELCWISPL (modifications not checked) [SEQ ID NO 299], the IC50 is less than 100 µM.

Turning to VSCQEWDGVELCWVDGDLAA (modifications not checked) [SEQ ID NO 288], the IC50 was less than 100 µM.

Molecule AVCQDWYGVELCWCMQDILD (modifications not checked) [SEQ ID NO 314] had an IC50 of less than 100 µM.

In turn, GLEIACEDWYGVELCWLRRA (modifications not checked) [SEQ ID NO 290] returned an IC50 of less than 100 µM.

On to TAEVVCQEWDGVELCWIEVL (modifications not checked) [SEQ ID NO 312], for which the IC50 is less than 100 µM.

On to QLGVECQNWRGVELCWVSEI (modifications not checked) [SEQ ID NO 311], for which the IC50 was less than 100 µM.

Regarding RWAVSCQDWQGIELCWPEWD (modifications not checked) [SEQ ID NO 319], the concentration for half-maximal inhibition (IC50) is less than 100 µM.

IMCQEWDGVELCWLERDKAN (modifications not checked) [SEQ ID NO 289]: the IC50 was less than 100 µM.

In turn, DRQVVCEEWDGVELCWIEES (modifications not checked) [SEQ ID NO 297] displayed an IC50 of less than 100 µM.

With PYGVVCQDWAGVELCWVENR (modifications not checked) [SEQ ID NO 292], the IC50 is less than 100 µM.

Consider HSTVICQDWDGVELCWIEND (modifications not checked) [SEQ ID NO 316], for which the IC50 is less than 100 µM.

Regarding PVEVRCQEWEGVELCWVVGI (modifications not checked) [SEQ ID NO 304], the IC50 was less than 100 µM.

For the molecule RLGVECQEWEGVDLCWISAF (modifications not checked) [SEQ ID NO 300], the IC50 was less than 100 µM.

(Values after patent US20240100159A1, “USE OF IL-7R-ALPHA-GAMMA AGONIST PEPTIDES IN CELL MANUFACTURING” (MEDIKINE, INC., priority 2022, published 2024).)
